Holding throughout (experiment): GST pull-down, LC-MS/MS; score of protein identification
One experiment concerns the target ATP synthase, β chain.
The target of experiment [1] is Electron transfer flavoprotein, α subunit.
The next experiment deals with ATP synthase, O subunit.

Our source for the Unused Score values is patent US20210324057A1.

Chain of ATP synthase, O subunit (Q9DB20 24-213): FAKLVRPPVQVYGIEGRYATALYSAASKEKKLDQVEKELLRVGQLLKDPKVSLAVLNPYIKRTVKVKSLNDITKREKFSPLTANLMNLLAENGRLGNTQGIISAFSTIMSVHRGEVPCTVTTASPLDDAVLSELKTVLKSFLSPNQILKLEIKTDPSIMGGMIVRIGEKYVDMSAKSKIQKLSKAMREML
Chain of ATP synthase, β chain (P56480 47-529): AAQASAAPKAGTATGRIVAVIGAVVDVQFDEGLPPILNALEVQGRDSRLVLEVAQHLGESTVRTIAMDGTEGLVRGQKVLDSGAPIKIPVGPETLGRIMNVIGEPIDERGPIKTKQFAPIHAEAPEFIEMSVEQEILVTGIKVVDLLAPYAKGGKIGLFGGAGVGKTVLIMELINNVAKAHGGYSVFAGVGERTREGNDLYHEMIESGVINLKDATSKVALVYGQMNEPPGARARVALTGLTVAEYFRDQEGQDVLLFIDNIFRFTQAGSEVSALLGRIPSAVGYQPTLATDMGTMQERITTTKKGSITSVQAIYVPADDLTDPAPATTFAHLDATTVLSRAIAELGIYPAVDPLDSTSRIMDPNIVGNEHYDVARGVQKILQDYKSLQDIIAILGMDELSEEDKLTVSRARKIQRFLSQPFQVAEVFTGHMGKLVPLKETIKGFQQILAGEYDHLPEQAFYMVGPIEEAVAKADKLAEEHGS
Chain of Electron transfer flavoprotein, α subunit (Q99LC5 20-333): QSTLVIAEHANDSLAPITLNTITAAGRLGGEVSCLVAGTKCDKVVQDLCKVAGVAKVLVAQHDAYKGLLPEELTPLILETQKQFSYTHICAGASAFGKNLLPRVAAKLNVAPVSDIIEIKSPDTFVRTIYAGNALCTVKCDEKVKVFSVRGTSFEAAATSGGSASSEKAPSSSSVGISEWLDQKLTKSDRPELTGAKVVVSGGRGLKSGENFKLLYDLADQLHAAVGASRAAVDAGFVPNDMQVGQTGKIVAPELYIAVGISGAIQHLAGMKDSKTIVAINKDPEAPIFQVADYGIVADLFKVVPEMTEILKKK

Take “GST-LRRC8A (fusion protein comprised of the leucine rich C-terminus of LRRC8A and GST)”: the Unused Score in the experiment with ATP synthase, β chain came out at 5.94; in experiment [1], 11.6; with ATP synthase, O subunit it was 8.44.
